This passage reports CAR T cell expansion (cell number over time) with 10, 20, 50 and 100 ng/ml TGF-β results from US20220090012A1.

A value given as a limit tells only on which side of the number the result lay.

The assay deals with Transforming Growth Factor Beta Receptor II (TGFBRII) (human) (UniProt P37173). Put plainly: cell-based or functional assay.
Sequence of Transforming Growth Factor Beta Receptor II (TGFBRII) (human) (P37173 23-567): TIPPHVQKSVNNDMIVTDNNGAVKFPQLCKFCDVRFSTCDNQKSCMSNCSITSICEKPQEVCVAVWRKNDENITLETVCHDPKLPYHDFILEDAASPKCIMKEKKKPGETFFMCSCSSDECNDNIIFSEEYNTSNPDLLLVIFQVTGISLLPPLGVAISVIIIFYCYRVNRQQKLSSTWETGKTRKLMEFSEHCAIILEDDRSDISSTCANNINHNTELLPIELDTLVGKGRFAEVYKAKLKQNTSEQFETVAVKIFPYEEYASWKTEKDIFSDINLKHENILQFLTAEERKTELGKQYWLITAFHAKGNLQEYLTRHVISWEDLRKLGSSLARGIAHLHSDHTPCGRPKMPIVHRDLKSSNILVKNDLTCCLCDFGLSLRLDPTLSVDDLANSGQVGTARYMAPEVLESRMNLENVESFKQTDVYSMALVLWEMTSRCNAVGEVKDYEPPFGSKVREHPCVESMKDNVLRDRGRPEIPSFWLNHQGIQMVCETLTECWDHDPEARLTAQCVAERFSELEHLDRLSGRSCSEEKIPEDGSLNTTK

Take “recombinant human TGF-β (from UniProt P28072 35-239) (ligand)”: the CAR T cell expansion (cell number over time) with 10, 20, 50 and 100 ng/ml TGF-β is < 10 ng/mL.
